Measurements: patent publication US20220389111A1 (SHANGHAI EPIMAB BIOTHERAPEUTICS, published 2022)

T1: human CD39 protein (recombinant) (human, UniProt P49961 38-478, limits assumed)
T1 sequence: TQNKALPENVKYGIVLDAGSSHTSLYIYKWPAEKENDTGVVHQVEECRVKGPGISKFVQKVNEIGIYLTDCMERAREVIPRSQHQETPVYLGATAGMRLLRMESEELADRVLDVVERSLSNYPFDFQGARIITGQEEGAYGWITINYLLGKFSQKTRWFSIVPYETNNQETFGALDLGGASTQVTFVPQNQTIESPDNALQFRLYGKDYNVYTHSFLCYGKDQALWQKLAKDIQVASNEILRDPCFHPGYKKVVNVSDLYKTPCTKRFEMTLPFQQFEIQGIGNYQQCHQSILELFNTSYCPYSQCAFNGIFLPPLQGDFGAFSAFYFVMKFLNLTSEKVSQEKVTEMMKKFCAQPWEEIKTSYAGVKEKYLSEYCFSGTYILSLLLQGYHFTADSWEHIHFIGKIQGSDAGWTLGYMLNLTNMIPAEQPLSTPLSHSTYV


What was measured:
[1] = target: T1, human CD39 protein (recombinant); experiment: cell-based or functional assay
[2] = target: T1, human CD39 protein (recombinant); experiment: ELISA on coated human CD39 protein
Procedure: To determine if anti-CD39 mAbs bind to human CD39, ELISA plates were incubated overnight at 4° C. with human CD39 protein or mouse CD39 protein diluted in PBS, pH7.4 buffer at 1 μg/ml. Plates were washed four times in washing buffer (PBS containing 0.05% Tween 20), and blocked for 1 hour at 37° C. with 200 μl per well blocking buffer (1% BSA in PBS containing 0.05% Tween 20). After blocking buffer was removed, hybridoma supernatant or diluted purified Abs were added to the wells at 100 μl per well and incubated at 37° C. for 1 hour. The wells were washed four times with washing buffer, and anti-mouse HRP (for mouse anti-human CD39 Ab characterization) or anti-rat HRP (for rat anti-mouse CD39 Ab characterization) (Sigma) were 1:5000 diluted and added to the wells at 100 μl per well. The plates were incubated for 1 hour at 37° C. and washed four times in washing buffer. 100 μl of tetramethylbenzidine (TMB) chromogenic solution were added per well. Following color development, the reaction was stopped with 1N HCl, and absorbance at 450 nm was measured. The data were proceeded by GraphPad software.
Humanized antibodies HuEM04-38-6 to HuEM0004-38-20 and chimeric antibodies EM04-38c, EM004-38c1, and EM0004-38c2 were tested for CD39 specific binding by ELISA as described in Example 1.2 and for inhibition of protein-based ATPase activity as described in Example 1.3.

Row | Binder | ATPase inhibition IC50 [1] | ATPase inhibition, inhibition % [1] | EC50 [2]
1 | EM0004-38c (antibody, human IgG1, kappa, L234A L235A, V domains shown, chimeric mAb638; also called EM04-38c) VH: QVQLQQPGTELVKPGASVKLSCKASGYTFTSFWMHWVKQRPGQGLEWIGNINPRNGATKYNEKFRSKVTLTADKTSSTAYMHLSSLTSEDSAVYYCAREDYDEIYYAMDSWGQGTSVTVSS VL: QNVLTQSPAIMSASPGEKVTMTCSASSSVIYMYWFQQKPGSSPRVLIYDTSNLASGVPARFSGSGSGTSYSLTISRMEAEDAATYYCQQWSTYPLTFGAGTKLELKR | 24.2 nM | 107% | 0.014 µg/mL
2 | HuEM0004-38-6 (antibody, human IgG1, kappa, L234A L235A, V domains shown) VH: EVQLVQSGAEVKKPGASVKVSCKASGYTFTSFWMHWVRQAPGQGLEWMGNINPRNGATKYNEKFRSRVTMTADTSISTAYMELSRLRSDDTAVYYCAREDYDEIYYAMDSWGQGTTVTVSS VL: ENVLTQSPATLSLSPGERATLSCSASSSVIYMYWFQQKPGQAPRLLIYDTSNLASGIPARFSGSGSGTDYTLTISSLEPEDFAVYYCQQWSTYPLTFGQGTKLEIKR | 140 nM | 64.1% | 
3 | HuEM0004-38-9 (antibody, human IgG1, kappa, L234A L235A, V domains shown) VH: EVQLVQSGAEVKKPGASVKVSCKASGYTFTSFWMHWVRQAPGQGLEWIGNINPRNGATKYNEKFRSRVTLTADKSISTAYMELSRLRSDDTAVYYCAREDYDEIYYAMDSWGQGTTVTVSS VL: ENVLTQSPATLSLSPGERATLSCSASSSVIYMYWFQQKPGQAPRLLIYDTSNLASGIPARFSGSGSGTDYTLTISSLEPEDFAVYYCQQWSTYPLTFGQGTKLEIKR | 79.6 nM | 61.6% | 
4 | HuEM0004-38-13 (antibody, human IgG1, kappa, L234A L235A, V domains shown, humanized mAb638, human IgG1/kappa) VH: EVQLVQSGAEVKKPGASVKVSCKASGYTFTSFWMHWVRQAPGQGLEWMGNINPRNGATKYNEKFRSRVTLTADKSISTAYMELSRLRSDDTAVYYCAREDYDEIYYAMDSWGQGTTVTVSS VL: ENVLTQSPATLSLSPGERATLSCSASSSVIYMYWFQQKPGQSPRVLIYDTSNLASGIPARFSGSGSGTDYTLTISSLEPEDFAVYYCQQWSTYPLTFGQGTKLEIKR | 36.2 nM | 98.7% | 0.023 µg/mL
5 | HuEM0004-38-10 (antibody, human IgG1, kappa, L234A L235A, V domains shown, humanized mAb638, human IgG1/kappa) VH: EVQLVQSGAEVKKPGASVKVSCKASGYTFTSFWMHWVRQAPGQGLEWIGNINPRNGATKYNEKFRSKVTLTADKSISTAYMELSRLRSDDTAVYYCAREDYDEIYYAMDSWGQGTTVTVSS VL: ENVLTQSPATLSLSPGERATLSCSASSSVIYMYWFQQKPGQAPRLLIYDTSNLASGIPARFSGSGSGTDYTLTISSLEPEDFAVYYCQQWSTYPLTFGQGTKLEIKR | 83.2 nM | 71.5% | 0.175 µg/mL
6 | HuEM0004-38-19 (antibody, human IgG1, kappa, L234A L235A, V domains shown, humanized mAb638, human IgG1/kappa) VH: EVQLVQSGAEVKKPGASVKVSCKASGYTFTSFWMHWVRQAPGQGLEWIGNINPRNGATKYNEKFRSRVTLTADKSISTAYMELSRLRSDDTAVYYCAREDYDEIYYAMDSWGQGTTVTVSS VL: ENVLTQSPATLSLSPGERATLSCSASSSVIYMYWFQQKPGQSPRVLIYDTSNLASGVPARFSGSGSGTDYTLTISSLEPEDFAVYYCQQWSTYPLTFGQGTKLEIKR | 33.2 nM | 99.2% | 0.02 µg/mL
7 | HuEM0004-38-14 (antibody, human IgG1, kappa, L234A L235A, V domains shown, humanized mAb638, human IgG1/kappa) VH: EVQLVQSGAEVKKPGASVKVSCKASGYTFTSFWMHWVRQAPGQGLEWIGNINPRNGATKYNEKFRSRVTLTADKSISTAYMELSRLRSDDTAVYYCAREDYDEIYYAMDSWGQGTTVTVSS VL: ENVLTQSPATLSLSPGERATLSCSASSSVIYMYWFQQKPGQSPRVLIYDTSNLASGIPARFSGSGSGTDYTLTISSLEPEDFAVYYCQQWSTYPLTFGQGTKLEIKR | 36.9 nM | 98.9% | 0.021 µg/mL
8 | HuEM0004-38-8 (antibody, human IgG1, kappa, L234A L235A, V domains shown, humanized mAb638, human IgG1/kappa) VH: EVQLVQSGAEVKKPGASVKVSCKASGYTFTSFWMHWVRQAPGQGLEWMGNINPRNGATKYNEKFRSRVTLTADKSISTAYMELSRLRSDDTAVYYCAREDYDEIYYAMDSWGQGTTVTVSS VL: ENVLTQSPATLSLSPGERATLSCSASSSVIYMYWFQQKPGQAPRLLIYDTSNLASGIPARFSGSGSGTDYTLTISSLEPEDFAVYYCQQWSTYPLTFGQGTKLEIKR | 81.8 nM | 67.9% | 0.097 µg/mL
9 | HuEM0004-38-12 (antibody, human IgG1, kappa, L234A L235A, V domains shown, humanized mAb638, human IgG1/kappa) VH: EVQLVQSGAEVKKPGASVKVSCKASGYTFTSFWMHWVRQAPGQGLEWMGNINPRNGATKYNEKFRSRVTMTADKSISTAYMELSRLRSDDTAVYYCAREDYDEIYYAMDSWGQGTTVTVSS VL: ENVLTQSPATLSLSPGERATLSCSASSSVIYMYWFQQKPGQSPRVLIYDTSNLASGIPARFSGSGSGTDYTLTISSLEPEDFAVYYCQQWSTYPLTFGQGTKLEIKR | 46.9 nM | 103% | 0.023 µg/mL
10 | HuEM0004-38-20 (antibody, human IgG1, kappa, L234A L235A, V domains shown, humanized mAb638, human IgG1/kappa) VH: EVQLVQSGAEVKKPGASVKVSCKASGYTFTSFWMHWVRQAPGQGLEWIGNINPRNGATKYNEKFRSKVTLTADKSISTAYMELSRLRSDDTAVYYCAREDYDEIYYAMDSWGQGTTVTVSS VL: ENVLTQSPATLSLSPGERATLSCSASSSVIYMYWFQQKPGQSPRVLIYDTSNLASGVPARFSGSGSGTDYTLTISSLEPEDFAVYYCQQWSTYPLTFGQGTKLEIKR | 27.3 nM | 100% | 0.031 µg/mL
11 | HuEM0004-38-7 (antibody, human IgG1, kappa, L234A L235A, V domains shown, humanized mAb638, human IgG1/kappa) VH: EVQLVQSGAEVKKPGASVKVSCKASGYTFTSFWMHWVRQAPGQGLEWMGNINPRNGATKYNEKFRSRVTMTADKSISTAYMELSRLRSDDTAVYYCAREDYDEIYYAMDSWGQGTTVTVSS VL: ENVLTQSPATLSLSPGERATLSCSASSSVIYMYWFQQKPGQAPRLLIYDTSNLASGIPARFSGSGSGTDYTLTISSLEPEDFAVYYCQQWSTYPLTFGQGTKLEIKR | 83.5 nM | 71.4% | 0.149 µg/mL
12 | HuEM0004-38-18 (antibody, human IgG1, kappa, L234A L235A, V domains shown, humanized mAb638, human IgG1/kappa) VH: EVQLVQSGAEVKKPGASVKVSCKASGYTFTSFWMHWVRQAPGQGLEWMGNINPRNGATKYNEKFRSRVTLTADKSISTAYMELSRLRSDDTAVYYCAREDYDEIYYAMDSWGQGTTVTVSS VL: ENVLTQSPATLSLSPGERATLSCSASSSVIYMYWFQQKPGQSPRVLIYDTSNLASGVPARFSGSGSGTDYTLTISSLEPEDFAVYYCQQWSTYPLTFGQGTKLEIKR | 18.9 nM | 98.5% | 0.019 µg/mL
13 | HuEM0004-38-11 (antibody, human IgG1, kappa, L234A L235A, V domains shown, humanized mAb638, human IgG1/kappa) VH: EVQLVQSGAEVKKPGASVKVSCKASGYTFTSFWMHWVRQAPGQGLEWMGNINPRNGATKYNEKFRSRVTMTADTSISTAYMELSRLRSDDTAVYYCAREDYDEIYYAMDSWGQGTTVTVSS VL: ENVLTQSPATLSLSPGERATLSCSASSSVIYMYWFQQKPGQSPRVLIYDTSNLASGIPARFSGSGSGTDYTLTISSLEPEDFAVYYCQQWSTYPLTFGQGTKLEIKR | 65.3 nM | 99.6% | 0.021 µg/mL
14 | HuEM0004-38-16 (antibody, human IgG1, kappa, L234A L235A, V domains shown, humanized mAb638, human IgG1/kappa) VH: EVQLVQSGAEVKKPGASVKVSCKASGYTFTSFWMHWVRQAPGQGLEWMGNINPRNGATKYNEKFRSRVTMTADTSISTAYMELSRLRSDDTAVYYCAREDYDEIYYAMDSWGQGTTVTVSS VL: ENVLTQSPATLSLSPGERATLSCSASSSVIYMYWFQQKPGQSPRVLIYDTSNLASGVPARFSGSGSGTDYTLTISSLEPEDFAVYYCQQWSTYPLTFGQGTKLEIKR | 41 nM | 102% | 0.027 µg/mL
15 | HuEM0004-38-17 (antibody, human IgG1, kappa, L234A L235A, V domains shown, humanized mAb638, human IgG1/kappa) VH: EVQLVQSGAEVKKPGASVKVSCKASGYTFTSFWMHWVRQAPGQGLEWMGNINPRNGATKYNEKFRSRVTMTADKSISTAYMELSRLRSDDTAVYYCAREDYDEIYYAMDSWGQGTTVTVSS VL: ENVLTQSPATLSLSPGERATLSCSASSSVIYMYWFQQKPGQSPRVLIYDTSNLASGVPARFSGSGSGTDYTLTISSLEPEDFAVYYCQQWSTYPLTFGQGTKLEIKR | 20.4 nM | 103% | 0.044 µg/mL
16 | HuEM0004-38-15 (antibody, human IgG1, kappa, L234A L235A, V domains shown, humanized mAb638, human IgG1/kappa) VH: EVQLVQSGAEVKKPGASVKVSCKASGYTFTSFWMHWVRQAPGQGLEWIGNINPRNGATKYNEKFRSKVTLTADKSISTAYMELSRLRSDDTAVYYCAREDYDEIYYAMDSWGQGTTVTVSS VL: ENVLTQSPATLSLSPGERATLSCSASSSVIYMYWFQQKPGQSPRVLIYDTSNLASGIPARFSGSGSGTDYTLTISSLEPEDFAVYYCQQWSTYPLTFGQGTKLEIKR | 40.9 nM | 97.6% | 0.031 µg/mL
